Results published in US20200283532A1 (CANCER RESEARCH TECHNOLOGY, published 2020).

Key:
Assay in all cases: flow cytometry, A375Ppuro cells
[1] = molecular target: Peptide (23) DTPA-GNK(Biotin)…-OH
[2] = molecular target: Peptide (16) AcHN-NK(Biotin)…-OH
[3] = molecular target: Peptide (25) DTPA-nK(Biotin)…-OH
[4] = molecular target: Peptide (26) DTPA-nK(Biotin)…t-OH
[5] = molecular target: Peptide (22) DTPA-NK(Biotin)…-OH
[6] = molecular target: Peptide (24) DTPA-NK(Biotin)…-NH2
[7] = molecular target: Peptide (18) AcHN-NK(Biotin)…-NH2

Measured: binding result

B1: integrin αvβ5 (receptor)
chain 1: FNLDVDSPAEYSGPEGSYFGFAVDFFVPSASSRMFLLVGAPKANTTQPGIVEGGQVLKCDWSSTRRCQPIEFDATGNRDYAKDDPLEFKSHQWFGASVRSKQDKILACAPLYHWRTEMKQEREPVGTCFLQDGTKTVEYAPCRSQDIDADGQGFCQGGFSIDFTKADRVLLGGPGSFYWQGQLISDQVAEIVSKYDPNVYSIKYNNQLATRTAQAIFDDSYLGYSVAVGDFNGDGIDDFVSGVPRAARTLGMVYIYDGKNMSSLYNFTGEQMAAYFGFSVAATDINGDDYADVFIGAPLFMDRGSDGKLQEVGQVSVSLQRASGDFQTTKLNGFEVFARFGSAIAPLGDLDQDGFNDIAIAAPYGGEDKKGIVYIFNGRSTGLNAVPSQILEGQWAARSMPPSFGYSMKGATDIDKNGYPDLIVGAFGVDRAILYRARPVITVNAGLEVYPSILNQDNKTCSLPGTALKVSCFNVRFCLKADGKGVLPRKLNFQVELLLDKLKQKGAIRRALFLYSRSPSHSKNMTISRGGLMQCEELIAYLRDESEFRDKLTPITIFMEYRLDYRTAADTTGLQPILNQFTPANISRQAHILLDCGEDNVCKPKLEVSVDSDQKKIYIGDDNPLTLIVKAQNQGEGAYEAELIVSIPLQADFIGVVRNNEALARLSCAFKTENQTRQVVCDLGNPMKAGTQLLAGLRFSVHQQSEMDTSVKFDLQIQSSNLFDKVSPVVSHKVDLAVLAAVEIRGVSSPDHVFLPIPNWEHKENPETEEDVGPVVQHIYELRNNGPSSFSKAMLHLQWPYKYNNNTLLYILHYDIDGPMNCTSDMEINPLRIKISSLQTTEKNDTVAGQGERDHLITKRDLALSEGDIHTLGCGVAQCLKIVCQVGRLDRGKSAILYVKSLLWTETFMNKENQNHSYSLKSSASFNVIEFPYKNLPIEDITNSTLVTTNVTWGIQPAPMPVPVWVIILAVLAGLLLLAVLVFVMYRMGFFKRVRPPQEEQEREQLQPHENGEGNSET
chain 2: GLNICTSGSATSCEECLLIHPKCAWCSKEDFGSPRSITSRCDLRANLVKNGCGGEIESPASSFHVLRSLPLSSKGSGSAGWDVIQMTPQEIAVNLRPGDKTTFQLQVRQVEDYPVDLYYLMDLSLSMKDDLDNIRSLGTKLAEEMRKLTSNFRLGFGSFVDKDISPFSYTAPRYQTNPCIGYKLFPNCVPSFGFRHLLPLTDRVDSFNEEVRKQRVSRNRDAPEGGFDAVLQAAVCKEKIGWRKDALHLLVFTTDDVPHIALDGKLGGLVQPHDGQCHLNEANEYTASNQMDYPSLALLGEKLAENNINLIFAVTKNHYMLYKNFTALIPGTTVEILDGDSKNIIQLIINAYNSIRSKVELSVWDQPEDLNLFFTATCQDGVSYPGQRKCEGLKIGDTASFEVSLEARSCPSRHTEHVFALRPVGFRDSLEVGVTYNCTCGCSVGLEPNSARCNGSGTYVCGLCECSPGYLGTRCECQDGENQSVYQNLCREAEGKPLCSGRGDCSCNQCSCFESEFGKIYGPFCECDNFSCARNKGVLCSGHGECHCGECKCHAGYIGDNCNCSTDISTCRGRDGQICSERGHCLCGQCQCTEPGAFGEMCEKCPTCPDACSTKRDCVECLLLHSGKPDNQTCHSLCRDEVITWVDTIVKDDQEAVLCFYKTAKDCVMMFTYVELPSGKSNLTVLREPECGNTPNAMTILLAVVGSILLVGLALLAIWKLLVTIHDRREFAKFQSERSRARYEMASNPLYRKPISTHTVDFTFNKFNKSYNGTVD
notes: whole, on cells
no binding (tested: 1000 nM): all assays above

B2: integrin αvβ8 (receptor)
chain 1: B1 chain 1
chain 2: EDNRCASSNAASCARCLALGPECGWCVQEDFISGGSRSERCDIVSNLISKGCSVDSIEYPSVHVIIPTENEINTQVTPGEVSIQLRPGAEANFMLKVHPLKKYPVDLYYLVDVSASMHNNIEKLNSVGNDLSRKMAFFSRDFRLGFGSYVDKTVSPYISIHPERIHNQCSDYNLDCMPPHGYIHVLSLTENITEFEKAVHRQKISGNIDTPEGGFDAMLQAAVCESHIGWRKEAKRLLLVMTDQTSHLALDSKLAGIVVPNDGNCHLKNNVYVKSTTMEHPSLGQLSEKLIDNNINVIFAVQGKQFHWYKDLLPLLPGTIAGEIESKAANLNNLVVEAYQKLISEVKVQVENQVQGIYFNITAICPDGSRKPGMEGCRNVTSNDEVLFNVTVTMKKCDVTGGKNYAIIKPIGFNETAKIHIHRNCSCQCEDNRGPKGKCVDETFLDSKCFQCDENKCHFDEDQFSSESCKSHKDQPVCSGRGVCVCGKCSCHKIKLGKVYGKYCEKDDFSCPYHHGNLCAGHGECEAGRCQCFSGWEGDRCQCPSAAAQHCVNSKGQVCSGRGTCVCGRCECTDPRSIGRFCEHCPTCYTACKENWNCMQCLHPHNLSQAILDQCKTSCALMEQQHYVDQTSECFSSPSYLRIFFIIFIVTFLIGLLKVLIIRQVILQWNSNKIKSSSDYRVSASKKDKLILQSVCTRAVTYRREKPEEIKMDISKLNAHETFRCNF
notes: whole, on cells
no binding (tested: 1000 nM): all assays above
